# Measurements as given in US20240109974A1 (SHANDONG SIMCERE BIOPHARMACEUTICAL, published 2024).
# Changes are numbered by the printed parent chain.
# B1: 224-Hu1 (antibody, V domains shown)
# VH: QVQLVQSGAEVKKPGASVKVSCKASGFNNKDIYMHWVRQAPGQGLEWIGRIDPATGNTKHDPKFQDRVTMTSDTSTNTVYMELSSLRSEDTAVYYCARSPYGDFGAMDYWGQGTLVTVSS
# VL: DIQMTQSPSSLSASVGDRVTITCTASSSVSSNYLHWYQQKPGKAPKLWIYSTSNLPSGVPSRFSGSGSGTDFTLTISSLQPEDFATYYCHQYHRSPWTFGQGTKVEIK
# notes: Humanized form of #224; also called VH8 + VL6
# B2: 224-Hu7 (antibody, V domains shown)
# VH: QVQLVQSGSELKKPGASVKVSCKASGFNNKDIYMHWVRQAPGQGLEWMGRIDPATGNTKHDPKFQDKAVLSSDTSVSTAYLQISSLKAEDTAVYYCARSPYGDFGAMDYWGQGTLVTVSS
# VL: B1 VL with W48L
# notes: Humanized form of #224; also called VH9 + VL10
# B3: 224-Hu4 (antibody, V domains shown)
# VH: B2 VH
# VL: B1 VL
# notes: Humanized form of #224; also called VH9 + VL6
# B4: 224-Hu2 (antibody, V domains shown)
# VH: B2 VH
# VL: B1 VL with K43S, A44S
# notes: Humanized form of #224; also called VH9 + VL7
# B5: 224-Hu3 (antibody, V domains shown)
# VH: B2 VH
# VL: B1 VL with W48L, P81A, F84A
# notes: Humanized form of #224; also called VH9 + VL8
# B6: 224-Hu6 (antibody, V domains shown)
# VH: B1 VH
# VL: B1 VL with K43S, A44S
# notes: Humanized form of #224; also called VH8 + VL7
# B7: 001-Hu5 (antibody, V domains shown)
# VH: EVQLVESGGGLVQPGGSLRLSCAASGFAFSTYDLSWVRQAPGKGLEWVAYINNGGISTYYSDTVKGRFTISRDNAKNTLYLQMNSLRAEDTAVYYCVRGPFYGSANYFDYWGQGTLVTVSS
# VL: DIQMTQSPSSLSASVGDRVTITCRTSESIYSNLPWYQQKPGKSPKLLVYDATKLAEGVPSRFSGSGSGTDYTLTISSLQPEDFATYYCQHFWVTPWTFGQGTKVEIK
# notes: Humanized form of #001; also called VH1 + VL4
# B8: 001-Hu3 (antibody, V domains shown)
# VH: B7 VH
# VL: B7 VL with S43A, V48I
# notes: Humanized form of #001; also called VH1 + VL3
# B9: 001-Hu1 (antibody, V domains shown)
# VH: B7 VH
# VL: B7 VL with S43A, V48L
# notes: Humanized form of #001; also called VH1 + VL1
# B10: 001-Hu2 (antibody, V domains shown)
# VH: B7 VH with T78S
# VL: B7 VL with V48I, Y71F
# notes: Humanized form of #001; also called VH2 + VL2
# B11: 001-Hu4 (antibody, V domains shown)
# VH: B7 VH with T78S
# VL: B7 VL
# notes: Humanized form of #001; also called VH2 + VL4
# B12: 219-Hu3 (antibody, V domains shown)
# VH: QVQLVQSGAEVKKPGSSVKVSCKASGYSFTNYWMNWVRQAPGQGLEWMGMIHPSDTETRLNQNFKDRVTITADKSTSTAYMELSSLRSEDTAVYYCARGEGLGAARSVSMDYWGQGTLVTVSS
# VL: DIQMTQSPSSLSASVGDRVTITCRASQDISNYLNWYQQKPDGTVKLLIYYTAILHSGVPSRFSGSGSGTDYSLTISSLQPEDFATYFCQQGNTLPWTFGQGTKVEIK
# notes: also called VH5 + VL5
# B13: 219-Hu2 (antibody, V domains shown)
# VH: B12 VH with R67K, V68A
# VL: B12 VL
# notes: also called VH4 + VL5
# B14: 219-Hu1 (antibody, V domains shown)
# VH: B12 VH with S16A, G44R, A72R, K74T, T76A
# VL: B12 VL
# notes: also called VH3 + VL5
# B15: 219-Hu5 (antibody, V domains shown)
# VH: B12 VH with A72V
# VL: B12 VL
# notes: also called VH7 + VL5
# B16: 219-Hu4 (antibody, V domains shown)
# VH: B12 VH with R38K, M48I, R67K, V68A, I70L, A72V
# VL: B12 VL
# notes: also called VH6 + VL5
# Target: T1, Human TNFR2-His (Sino 10417-H08H) (human, UniProt P20333 23-257)
# T1 construct: Bought protein; also called recombinant human TNFR2 protein; not shown: His tag
# T1 sequence (looked up): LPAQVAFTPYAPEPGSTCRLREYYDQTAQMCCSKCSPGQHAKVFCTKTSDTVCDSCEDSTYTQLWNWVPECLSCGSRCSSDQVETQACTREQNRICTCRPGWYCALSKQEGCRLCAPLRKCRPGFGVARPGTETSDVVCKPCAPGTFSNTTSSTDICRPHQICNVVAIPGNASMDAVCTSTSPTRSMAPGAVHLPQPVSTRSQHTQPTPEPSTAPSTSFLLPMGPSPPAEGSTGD
# Test: ELISA, human TNFR2-His coated
# Method: The test humanized antibody against TNFR2 (as described in Example 1, the antibody was comprised of variable regions linked to IgG-Fc; the WT chimeric antibody also adopted the IgG-Fc structure) was subjected to 3.33-fold gradient dilution, loaded with 100 μl/well, and incubated with shaking at room temperature for 1.5 hours. The plate was washed, and then a working solution of murine anti-human IgG Fc-HRP (diluted at 1:10000) was added, loaded with 100 μl/well, and incubated with shaking at room temperature for 1.0 hour. The plate was washed again, and then the substrate TMB of HRP was added to develop colour. A stop solution was added to stop the reaction, and then a microplate reader (MD 13) was used to read the absorbance value. The binding curve of an antibody was drawn with antibody concentration as the abscissa and corresponding OD value as the ordinate, and fitted with four parameters (GraphPad Prism9) to calculate the EC50 value. The smaller the EC50 value, the stronger the binding ability of an antibody to human/cynomolgus monkey TNFR2. The binding effect of a humanized antibody was normalized to its corresponding human-murine chimeric antibody WT (see SEQ ID NOs: 38-43 for the sequence). The higher the percentage value, the better the binding effect of the humanized antibody. The results of binding of an anti-TNFR2 antibody to a human TNFR2 protein are shown in FIG. 1 and Table 4, and the results of binding of an anti-TNFR2 antibody to cynomolgus monkey TNFR2 are shown in FIG. 2 and Table 4.
row,Binder,EC50 [mg/L]
1,B1,0.0104
2,B2,0.0096
3,B3,0.0107
4,B4,0.0108
5,B5,0.0122
6,B6,0.0111
7,B7,0.0102
8,B8,0.0101
9,B9,0.00986
10,B10,0.00956
11,B11,0.00894
12,B12,0.021
13,B13,0.0185
14,B14,0.0213
15,B15,0.0173
16,B16,0.0168

# Target: T2, human TNFR2 (Novoprotein, Cat #C830) (human, UniProt P20333 23-257, limits assumed)
# T2 construct: construct not described; also called human TNFR2 protein
# T2 sequence (looked up): T1 sequence (looked up)
# Test: competition ELISA, human TNFR2 coated, competitor human TNFα-Biotin
# Method: (§1) 1 μg/ml human TNFR2 (Novoprotein, Cat #C830) was pre-coated with 100 μl/well […] in an ELISA plate. All the test TNFR2 antibodies were subjected to 2.5-fold gradient dilution from the highest concentration of 30 μg/ml; the diluted antibodies were mixed with 15 ng/ml human TNFα-Biotin (Acro Biosystem, Cat #TNA-H82E3) in equal volume, respectively; the resulting mixture was added to the ELISA plate at 100 μl/well, and incubated with shaking at room temperature for 2.0 hours. The plate was washed, and then a Streptavidin-HRP working solution (diluted at 1:10000) was added at 100 μl/well, and the mixture was incubated with shaking at room temperature for 40 minutes. The plate was washed again, and then the substrate TMB of HRP was added to develop colour. A stop solution was added to stop the reaction, and then a microplate reader (MD 13) was used to read the absorbance value. The inhibitory curve of an antibody was drawn with antibody concentration as the abscissa and corresponding OD value as the ordinate, and fitted with four parameters (GraphPad Prism9) to calculate the IC50 value. The smaller the IC50 value, the stronger the ability of an antibody to inhibit the binding of human TNFα to human TNFR2. The blocking effect of a humanized antibody was normalized to its corresponding human-murine chimeric antibody WT. The higher the percentage value, the better the inhibitory effect of the humanized antibody.
row,Binder,IC50 [mg/L]
1,B1,0.441
2,B2,0.561
3,B3,0.458
4,B4,0.44
5,B5,0.441
6,B6,0.439
7,B7,0.656
8,B8,0.597
9,B9,0.573
10,B10,0.78
11,B11,0.59
12,B12,0.545
13,B13,0.472
14,B14,0.49
15,B15,0.578
16,B16,0.606

# Target: T2, human TNFR2 (Novoprotein, Cat #C830)
# Test: competition ELISA, competitor human TNFα-Biotin; IC50 against 224-WT
# Method: as §1
row,Binder,% Relative activity (WT antibody/test antibody) [%]
1,B1,106
2,B2,106
3,B3,105
4,B4,121
5,B5,120
6,B6,115

# Target: T3, human TNFR2 on the surface of CHO-TNFR2 cells (human, UniProt P20333 23-461)
# T3 construct: whole, on cells
# T3 sequence (looked up): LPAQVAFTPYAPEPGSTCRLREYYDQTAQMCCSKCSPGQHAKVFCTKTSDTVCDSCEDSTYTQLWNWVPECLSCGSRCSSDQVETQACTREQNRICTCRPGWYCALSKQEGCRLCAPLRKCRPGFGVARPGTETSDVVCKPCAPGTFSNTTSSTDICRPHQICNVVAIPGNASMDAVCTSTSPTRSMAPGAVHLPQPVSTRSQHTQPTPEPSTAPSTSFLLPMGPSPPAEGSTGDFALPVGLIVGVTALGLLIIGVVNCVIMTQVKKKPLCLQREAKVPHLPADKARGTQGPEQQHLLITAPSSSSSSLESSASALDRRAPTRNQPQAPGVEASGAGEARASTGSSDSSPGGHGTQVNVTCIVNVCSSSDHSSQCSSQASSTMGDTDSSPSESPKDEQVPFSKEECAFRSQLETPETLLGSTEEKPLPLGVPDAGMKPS
# Test: competition flow cytometry on CHO-TNFR2 cells, competitor human TNFα-biotin
# Method: (§2) CHO stable cells highly expressing human TNFR2 were used for the experiment (the same as CHO-TNFR2 in Example 4). The CHO-TNFR2 cells were digested, washed twice with DPBS, then stained with Live/Dead (L/D) (20 minutes at room temperature), and plated at a density of 1×10⁵ cells/50 μl/well. A test anti-TNFR2 antibody was diluted to 6 μg/ml with a staining buffer as the starting concentration: the antibody was subjected to 3.33-fold gradient dilution, with a total of 7 concentration points. The diluted antibody was added to the plated cells at 50 μl/well, and the mixture was mixed well by gentle pipetting, and incubated at 4° C. for 30 minutes. Then the diluted 100 ng/ml of human TNFα-biotin was added at 100 μl/well, and the mixture was mixed well by gentle pipetting, and then incubated at 4° C. for 30 minutes. The mixture was washed twice with a staining buffer, and then 0.12 μg/ml PE-streptavidin (BioLegend, Cat #405204) was added at 100 μl/well; the resulting mixture was incubated at 4° C. for 30 minutes. The mixture was washed twice with a staining buffer, and then 150 μl of staining buffer was added to resuspend the cells; signals were detected by a flow cytometer (Thermo Attune NxT). The inhibitory curve of an antibody was drawn with antibody concentration as the abscissa and corresponding MFI value as the ordinate, and fitted with four parameters (GraphPad Prism9) to calculate the IC50 value. The smaller the IC50 value, the stronger the ability of an antibody to inhibit the binding of human TNFα to human TNFR2. The blocking effect of a humanized antibody was normalized to its corresponding human-murine chimeric WT antibody. The higher the percentage value, the better the inhibitory effect of the humanized antibody.
row,Binder,IC50 [mg/L]
1,B1,0.042
2,B2,0.065
3,B3,0.058
4,B4,0.036
5,B5,0.044
6,B6,0.061
7,B7,0.093
8,B8,0.085
9,B9,0.087
10,B10,0.101
11,B11,0.087
12,B12,0.042
13,B13,0.039
14,B14,0.047
15,B15,0.039
16,B16,0.043

# Target: T3, human TNFR2 on the surface of CHO-TNFR2 …
# Test: competition flow cytometry on CHO-TNFR2 cells, competitor TNFα-biotin; AUC against 224-WT
# Method: as §2
row,Binder,% Relative activity (WT antibody/test antibody) [%]
1,B1,99.2
2,B2,91.1
3,B3,97.3
4,B4,105
5,B5,95.6
6,B6,99.4
